1 molecule from patent publication US20240173425A1, “HUMAN CD33 ANTIBODIES AND GLUCOCORTICOID CONJUGATES” (Eli Lilly and Company, priority 2022, published 2024) can be followed below.

The test concerns primary human monocyte cells. Briefly: Antibody internalization (pHrodo Red, flow cytometry). The test is classed as cell-based. Conditions: pHrodo-labeled antibodies 10 μg/mL, 2 hours at 37° C. As to the method: Exemplified anti-human CD33 antibodies were labeled with pHrodo™ Red, amine-reactive dye (Thermo Fisher, P36014). The pH-sensitive dye was a non-fluorescent when outside the cells but fluoresces brightly in acidic low-pH lysosomes. This property allows visualization and qualification of the internalization of an antibody by flow cytometry. Human PBMCs (500 K/well) were incubated on ice in FACS buffer for 30 min, to quiesce baseline internalization. Cells were stained with pHrodo-labeled antibodies (10 μg/mL) in FACS buffer for 1 hour on ice then transferred to 37° C. for 2 hours. Cells were then stained with the remaining panel of surface detection marker: CD45 mAb (clone HI30); CD11b (clone ICRF44); CD14 (clone M5E2).
For orientation: In flow cytometry, cells or beads pass a laser one at a time.

B1: Gemtuzumab: Gemtuzumab (hIgG4PAA), comparator anti-CD33 antibody in the internalization assay (antibody, chains of the INN, looked up, V domains shown)
VH: EVQLVQSGAEVKKPGSSVKVSCKASGYTITDSNIHWVRQAPGQSLEWIGYIYPYNGGTDYNQKFKNRATLTVDNPTNTAYMELSSLRSEDTAFYYCVNGNPWLAYWGQGTLVTVSS
VL: DIQLTQSPSTLSASVGDRVTITCRASESLDNYGIRFLTWFQQKPGKAPKLLMYAASNQGSGVPSRFSGSGSGTEFTLTISSLQPDDFATYYCQQTKEVPWSFGQGTKVEVK
modifications: hIgG4PAA
notes: Gemtuzumab (hIgG4PAA), comparator anti-CD33 antibody in the internalization assay
With B1, the “% Internalization” value turned out to be 50.55 ± 2.899%. Besides, under “listed as Gemtuzumab (hIgG4PAA)”, the “% Internalization” value is “about 50%”.
